Article PMC12775393

Legend:
[1] = molecular target: E. coli MRE600 tight-couple 70S ribosome (natural), translating the V50 hairpin mRNA (E. coli (endogenous in MRE600)) (UniProt P0A7K2); assay: optical tweezers with single-molecule fluorescence detection (fleezers); hairpin unwinding assay as a1, with a mixture of 1 mM GTP and 0.5 mM GDPNP; slow population of a bi-exponential fit
[2] = molecular target: E. coli MRE600 tight-couple 70S ribosome (natural), translating the V50 hairpin mRNA (E. coli (endogenous in MRE600)) (UniProt P0A7K2); assay: optical tweezers with single-molecule fluorescence detection (fleezers); hairpin unwinding assay as a1, with a mixture of 1 mM GTP and 0.5 mM GTPγS; slow population of a bi-exponential fit
[3] = molecular target: E. coli MRE600 tight-couple 70S ribosome (natural), translating the V50 hairpin mRNA (E. coli (endogenous in MRE600)) (UniProt P0A7K2); assay: optical tweezers with single-molecule fluorescence detection (fleezers); hairpin unwinding assay as a1, GDPNP:GTP ratio 1:9 at constant total nucleotide concentration; slow population of a bi-exponential fit
[4] = molecular target: E. coli MRE600 tight-couple 70S ribosome (natural), translating the V50 hairpin mRNA (E. coli (endogenous in MRE600)) (UniProt P0A7K2); assay: optical tweezers with single-molecule fluorescence detection (fleezers); hairpin unwinding assay as a1, GDPNP:GTP ratio 3:1 at constant total nucleotide concentration; slow population of a bi-exponential fit
[5] = molecular target: S16-biotinylated E. coli 70S ribosome, translating the hairpin-less mRNA (E. coli) (UniProt P0A7K2); assay: optical tweezers with single-molecule fluorescence detection (fleezers); assisting force assay; ribosome tethered by biotinylated S16 to one bead and the 5' end of a hairpin-less mRNA to the other, 9-12 pN; Cy3-labeled EF-G in solution, GTP (1 mM stated for the H92Q and H92A mutants), 1x TLC buffer
[6] = molecular target: E. coli MRE600 tight-couple 70S ribosome (natural), translating the V50 hairpin mRNA (E. coli (endogenous in MRE600)) (UniProt P0A7K2); assay: optical tweezers with single-molecule fluorescence detection (fleezers); hairpin unwinding assay; ribosome stalled on the V50 mRNA hairpin tethered between two beads at ~14 pN (13.5-14.5 pN); 10 nM Cy3-labeled EF-G in the translation mix, 1 mM GTP, 1x TLC buffer (40 mM HEPES pH 7.5, 60 mM NH4Cl, 10 mM Mg(OAc)2, 6 mM βME)

τ release, slow (GDPNP) population [1]	τ release, slow (GTPγS) population [2]	τ release, slow (GDPNP) population [3]	τ release, slow (GDPNP) population [4]	mean total dwell time of EF-G on the ribosome (τpre + τ post) [5]	mean dwell time of unproductive binding events (τ unproductive) [6]	mean total dwell time of EF-G on the ribosome (τ unwinding + τ release) [6]	τ release (time between hairpin unwinding and EF-G release) [6]	τ post (time between the mRNA step and EF-G unbinding) [5]	Substance
8.5 s	1.8 s	2.5 s	17 s	308 ms	300 ms	445 ms	0.38 s		Cy3-labeled EF-G, single-cysteine variant EF-G(S73C) (from UniProt P0A6M8 1-704) (enzyme)
							20 s	> 20 s	Cy3-labeled H92A EF-G (made from EF-G(S73C)) (from UniProt P0A6M8 1-704) (enzyme)
							2 s		Cy3-labeled H92Q EF-G (made from EF-G(S73C)) (from UniProt P0A6M8 1-704) (enzyme)
